Legend:
[1] = target: Recombinant human TRIM21 protein, TRIM21-his (Sinobiological #18010-H07B) (human) (UniProt P19474); experiment: antagonist assay of FIG. 6A against a control antibody; format not stated; competitor CLEC-1
[2] = target: Recombinant human TRIM21 protein, TRIM21-his (Sinobiological #18010-H07B) (human) (UniProt P19474); experiment: competition ELISA, TRIM21-his coated, antibody in excess (20 µg/ml), competitor biotinylated Fc-CLEC1 in dose response
[3] = target: T1, endogenous TRIM21 from whole cell extracts (RAJI, MoDC, HPB-ALL cells) (human, UniProt P19474 1-475); experiment: co-immunoprecipitation from RAJI whole cell extract, anti-TRIM21 Western blot (FIG. 3A); supernatant not depleted of TRIM21 (FIG. 3B)
T1 construct: Endogenous cellular protein of human cell lines and monocyte derived dendritic cells, not a recombinant construct; also called TRIM21 E3 Ubiquitin-protein Ligase; cellular endogenous TRIM-21
Source text: FIG. 3: Co-immunoprecipitation of TRIM21 with CLEC-1A.
The experiment was repeated using Monocyte derived Dendritic Cells (MoDC) protein extracts as starting endogenous protein mix.

[4] = target: T2, Recombinant human TRIM21 protein, TRIM21-his (Sinobiological #18010-H07B) (human, UniProt P19474 1-475); experiment: ELISA, TRIM21-his coated, biotinylated Fc in dose response (FIG. 4A)
T2 construct: Bought, produced in baculovirus; coated on ELISA plates or immobilised on a CM5 chip; not shown: his tag
Source text: (§1) Plate was saturated with superblock buffer (#37515, Thermofisher).

[5] = target: T2, Recombinant human TRIM21 protein, …; experiment: ELISA, TRIM21-his coated, biotinylated Fc-CLEC1 in dose response, streptavidin-peroxidase
Source text: as §1

[6] = target: T2, Recombinant human TRIM21 protein, …; experiment: ELISA, TRIM21-his coated, biotinylated His-CLEC1 in dose response, streptavidin-peroxidase

T2 sequence (P19474 whole entry): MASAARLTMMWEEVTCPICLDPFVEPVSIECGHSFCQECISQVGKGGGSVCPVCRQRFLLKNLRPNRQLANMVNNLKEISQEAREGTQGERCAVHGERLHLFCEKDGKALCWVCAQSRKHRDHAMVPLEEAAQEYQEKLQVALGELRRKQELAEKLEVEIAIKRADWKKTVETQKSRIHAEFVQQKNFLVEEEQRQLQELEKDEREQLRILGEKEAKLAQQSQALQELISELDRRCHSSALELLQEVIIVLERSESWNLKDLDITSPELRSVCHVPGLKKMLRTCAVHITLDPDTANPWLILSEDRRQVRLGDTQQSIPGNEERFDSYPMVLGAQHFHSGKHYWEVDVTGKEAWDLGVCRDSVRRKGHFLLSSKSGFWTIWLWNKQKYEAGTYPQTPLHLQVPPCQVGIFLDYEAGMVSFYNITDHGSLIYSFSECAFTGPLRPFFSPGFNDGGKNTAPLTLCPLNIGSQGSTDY
Recombinant human TRIM21 protein, TRIM21-his (Sinobiological #18010-H07B) (human), sequence (P19474 whole entry): as above
T1 sequence (P19474 whole entry): as above

Molecule	percent decrease of the Fc-CLEC1/TRIM21 interaction [2] [%]	also measured
anti-TRIM21 antibody Fisher PA5-22295		percent reduction of the binding between CLEC-1 and TRIM21 [1]: 65%
anti-TRIM21 antibody MAB62191 (Biotechne)	50	
anti-TRIM21 antibody PA5-18147 (Fisher)	50	
Fc only (human IgG1-E3 Fc control) (other, UniProt P01857-1 104-330, looked up, biotinylated in the ELISA (sites not given), domain: Fc; also called Fc alone; Fc-biot control) DKTHTCPPCPAPPVAGGPSVFLFPPKPKDTLMISRTPEVTCVVVDVSHEDPEVKFNWYVDGVEVHNAKTKPREEQYNSTYRVVSVLTVLHQDWLNGKEYKCKVSNKGLPSSIEKTISKAKGQPREPQVYTLPPSRDELTKNQVSLTCLVKGFYPSDIAVEWESNGQPENNYKTTPPVLDSDGSFFLYSKLTVDKSRWQQGNVFSCSVMHEALHNHYTQKSLSLSPGK		binding result [3]: no binding; binding result [4]: no binding (tested: 30 µg/ml)
Soluble Clec1-human IgG Fc chimera (Fc-Clec-1) (Fc fusion, biotinylated in the ELISA experiments (sites not given), domain: Fc; also called Fc-CLEC-1A; Fc-CLEC1A) DKTHTCPPCPAPPVAGGPSVFLFPPKPKDTLMISRTPEVTCVVVDVSHEDPEVKFNWYVDGVEVHNAKTKPREEQYNSTYRVVSVLTVLHQDWLNGKEYKCKVSNKGLPSSIEKTISKAKGQPREPQVYTLPPSRDELTKNQVSLTCLVKGFYPSDIAVEWESNGQPENNYKTTPPVLDSDGSFFLYSKLTVDKSRWQQGNVFSCSVMHEALHNHYTQKSLSLSPGKQYYQLSNTGQDTISQMEERLGNTSQELQSLQVQNIKLAGSLQHVAEKLCRELYNKAGAHRCSPCTEQWKWHGDNCYQFYKDSKSWEDCKYFCLSENSTMLKINKQEDLEFAASQSYSEFFYSYWTGLLRPDSGKAWLWMDGTPFTSELFHIIIDVTSPRSRDCVAILNGMIFSKDCKELKRCVCERRAGMVKPESLHVPPETLGEGD		EC50 [5]: 15 µg/mL
His-CLEC1 (Biotechne #1704-CL) (receptor, biotinylated in the ELISA experiments (sites not given), Bought recombinant protein produced in NS0 cells; also called His-CLEC1A; His-CLEC-1A; not shown: His tag) QYYQLSNTGQDTISQMEERLGNTSQELQSLQVQNIKLAGSLQHVAEKLCRELYNKAGAHRCSPCTEQWKWHGDNCYQFYKDSKSWEDCKYFCLSENSTMLKINKQEDLEFAASQSYSEFFYSYWTGLLRPDSGKAWLWMDGTPFTSELFHIIIDVTSPRSRDCVAILNGMIFSKDCKELKRCVCERRAGMVKPESLHVPPETLGEGD		EC50 [6]: 13 µg/mL

Further lines, with some results ahead:

percent decrease of the Fc-CLEC1/TRIM21 interaction [2] [%]	Molecule	also measured
50	anti-TRIM21 antibody MAB6219 (Biotechne)	
50	anti-TRIM21 antibody PA5-22294 (Fisher / Invitrogen)	
50	anti-TRIM21 antibody sc-25351 (Santacruz)	

— US20250026839A1 (OSE IMMUNOTHERAPEUTICS, published 2025)
